Data on three molecules can be found in US5981720A, “Human salivary proteins and fragments thereof having alpha-glucosidase inhibitory activity” (priority 1997, dated 1999).

Entries after “also recorded” stand apart in the source; their conditions may differ. Like-named read-outs stand apart in the source and are kept apart here.

Data set [1] deals with glucoamylase. The note with it: same concentration as for alpha-glucosidase.
In data set [2] the test system is beta-amylase. The experiment in a line: Enzyme assay of beta-amylase activity in the presence of CON-1. It is filed as biochemical. The note with it: same concentration as for alpha-glucosidase. The method, then: (§1) The enzyme reactions of alpha- and beta-amylases contained 2 mg of phytoglycogen as substrate in 0.05 M sodium acetate buffer, pH 5.4; and were incubated at 37° C. for 60 minutes. The liberation of reducing sugar from phytoglycogen was measured by the reduction of 3,5-nitrosalicyclic acid as described by Bernfeld, Methods Enzymol. 1:149-158 (1955).

In data set [3] the test system is HIV-1. The note with it: CEMx174 cells. The method, then:
To test whether the alpha-glucosidase inhibitor activity of CON-1 could also intervene in HIV adsorption to target cells, thereby reducing infectivity and production of viral proteins, the following experiment was carried out: CEMx174 cells, as described by Hoxie, et al., J. Virol., 62: 2557 (1988), were infected at a concentration of 500,000 cells per ml for 2 hours at 37 degrees Centigrade with cell-free HIV-1, isolated as described in Alizon, et al., Nature, 312: 757 (1984), by adding virus at a concentration of 300 ng of HIV p24 protein per ml. Components of complete medium: RPMI 1640 with 10% fetal bovin serum, 2 mM L-glutamine, penicillin at 100 units/ml, and streptomycin at 100 ug/ml) with phytohemagglutin (PHA, 1 ug/ml; Sigma). After the 2 hour incubation, the virus inoculum was washed off and the cells were resuspended in complete culture medium containing various amounts of CON-1 protein. The cells were incubated in 96-well microtiter plates (5×10^4 cells in 200 ul per well), and cell-free supernatants were collected 72 hours after infection.
The amount of HIV p24 in the cell-free supernatant was determined with a commercially available ELISA kit (Coulter) according to the manufacture's instructions. The HCEM cell line described in Pauza, et al. J. Virol., 63:3700 (1989) was used to assess the effect of CON-1 on HIV production from chronically infected cells. HCEM cells were pretreated with CON-1 at 10 ug/ml for 4 hours, washed twice with phosphate-buffered saline and then incubated at 10^6 cells per ml in complete medium in the presence of CON-1 at 10 ug/ml, respectively. After 48 hours, cell-free supernatants were collected to determine HIV p24 levels by ELISA.

Data set [4] concerns the target yeast alpha-glucosidase (Saccharomyces cerevisiae, UniProt P53341). It is filed as biochemical. Conditions: for inhibitory effect on alpha-glucosidase activity (in words): 0.02 units of yeast alpha-glucosidase; for Specific Inhibitory Activity: decrease of 1 umole of glucose production from maltose per microgram of salivary protein per hour, stages of CON-1 purification; for change of inhibitory activity after removal of acetylglucosamine (in words): incubation with N-acetylglucosaminidase. The method, then:
The enzyme of alpha-glucosidase activity is according to the procedure as described by Sigma Chemical Company, St. Louis, Mo. Routinely, the enzyme reaction mixture contains 10 mM maltose and 50 ul of purified alpha-glucosidase or 0.02 units of yeast alpha-glucosidase in a final volume of 60 ul of 25 mM sodium acetate buffer, pH 5.6. The reaction mixture is incubated at 37° C. for 60 minutes, and the production of glucose is determined by the glucose oxidase reagent (Worthington Statzyme Glucose 500) in accordance with recommendation of Worthington Biochemical Corporation.

The format of data set [5] is physicochemical. The text has this: The crude preparation (either cell lysate, whole saliva, or parotid exudate) is collected at subzero temperatures, preferably into a dry-ice chilled container. The preparation is then heated to a temperature between 75 and 100 degrees Centigrade, for a period sufficient to cause denaturation of proteases. At lower temperatures, the time of exposure to heat may be increased up to one hour. Best results are obtained by heating an aliquot of the crude preparation in boiling water from 2 to about 10 minutes. Precipitated protein is then removed by centrifugation followed by an alcohol precipitation. The alcohol may be isopropyl, methyl, or ethyl, ethyl being preferred because of its nontoxic or USP properties. Alcohol precipitation is generally carried out overnight at 4 to 15 degrees.
In conventional purification strategies, the protein was either degraded too rapidly to remove contaminating proteases, or the protein is inherently unstable in the presence of alterative materials. Among those techniques attempted in purifying CON-1 and CON-2 are the following: Sephadex gel filtration, DEAE cation and anion exchange chromatography, preparative gradient SDS-gel electrophoresis, solvent precipitation in an initial step (methanol, propanol, isopropanol, butanol acetone, and phenol), concanavalin A affinity column chromatography, and blue dye gel affinity column chromatography. […]

Data set [6] deals with CEM×179 cells. It is filed as cell-based. The method, then: T cell proliferation assay: CEM×179 cells (2×10^5/well in 200 ul of complete medium) were cultured during 6 days at 37° C. in flat-bottomed microtiter wells, and T cell proliferation was evaluated following a 6 hr pulse of (3H)-thymidine (0.5 uCi/well) (Amersham, Bucks, England). Cultures were harvested (Skatron Instruments, Lier, Norway) and the radioactivity was measured using a beta-counter (Packard Gamma 5500).

For data set [7], the system named is alpha-amylase. The experiment in a line: Enzyme assay of alpha-amylase activity in the presence of CON-1. It is filed as biochemical. The note with it: same concentration as for alpha-glucosidase. The method, then:
as §1

Data set [8] relates to invertase. The experiment in a line: Enzyme assay of invertase in the presence of CON-1. Conditions: same concentration as for alpha-glucosidase. It counts as biochemical. The method, then:
The enzyme reaction was incubated with 5 mM sucrose as substrate in 50 mM acetate buffer pH 5.0 at 37° C. for 60 minutes. The production of glucose was determined as described in "Enzyme Assay of Alpha-Glucosidase Activity".

Data set [9] has as its system debranching enzyme. The experiment in a line: Enzyme assay of debranching enzyme in the presence of CON-1. It is filed as biochemical. The note with it: same concentration as for alpha-glucosidase. The method, then:
Debranching enzyme activity was determined according to the method of Lee, et al. Arch. Biochem. Biophys., 143:315-374 (1971). The reaction mixture contains 2 mg of pullulan, 100 mM sodium citrate buffer (pH 7.0), and incubated at 37° C. for 60 minutes. The reducing sugar produced from phytoglycogen was determined according to the method of Bernfeld, Methods Enzymol. 1:149-158 (1955).

The mark [10] stands for this setting: supernatant 72 hours after infection (FIG. 9).

Sequence of yeast alpha-glucosidase (P53341 whole entry): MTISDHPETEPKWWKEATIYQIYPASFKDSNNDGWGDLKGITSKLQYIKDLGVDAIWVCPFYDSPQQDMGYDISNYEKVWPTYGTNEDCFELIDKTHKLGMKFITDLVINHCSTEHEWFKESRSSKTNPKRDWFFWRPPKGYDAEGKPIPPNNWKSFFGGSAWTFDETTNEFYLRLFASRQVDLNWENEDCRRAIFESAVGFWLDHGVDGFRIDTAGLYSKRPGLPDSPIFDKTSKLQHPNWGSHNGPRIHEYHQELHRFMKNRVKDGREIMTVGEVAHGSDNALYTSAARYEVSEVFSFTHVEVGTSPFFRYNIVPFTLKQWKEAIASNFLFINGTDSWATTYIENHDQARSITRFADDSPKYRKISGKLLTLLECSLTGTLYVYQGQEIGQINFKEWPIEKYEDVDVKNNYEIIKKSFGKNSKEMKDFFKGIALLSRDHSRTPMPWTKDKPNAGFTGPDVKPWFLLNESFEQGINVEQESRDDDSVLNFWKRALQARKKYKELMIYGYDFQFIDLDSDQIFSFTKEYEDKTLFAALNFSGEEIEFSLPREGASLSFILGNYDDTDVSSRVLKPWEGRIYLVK

B1: CON-1: basic salivary proline-rich glycoprotein which binds concanavalin A, 124 amino acids, large form (protein)
chain: SPPGKPQGPPPQGGNQPQGPPPPPGKPQGPPPQGGNKPQGPPPPGKPQGPPPQGDNKSQSARSPPGKPQGPPPQGGNQPQGPPPPPGKPQGPPPQGGNKSQGPPPPGKPQGPPPQGGSKSRSSR
modifications: glycoprotein; glycosylation occurs at one N-linked site (acetylglucosamine on asparagine of glycine-glycine-asparagine-lysine)
Regarding B1, in data set [1], the “inhibitory effect on glucoamylase (in words)” value is on record as “essentially no inhibitory effect”. Moreover, the “inhibitory effect on beta-amylase (in words)” value in [2] is listed as “None of the other enzymes is significantly affected; also recorded: essentially no inhibitory effect”. Further, in data set [3] (setting [10]), the “concentration at which significant inhibition of p24 production first occurs” value was 2.5 µg/mL and the “concentrations showing marked inhibition of p24 production” value is on record as “above 1.25 ug/ml”. In addition, in data set [3] (up to 20 ug/ml), the “effect on HIV p24 production (in words)” value is on record as “profound reductions in signal markers of viral replication”. In data set [4], the “inhibitory effect on alpha-glucosidase activity (in words)” value was “inhibition of essentially all enzyme activity; also recorded: completely inhibited the enzyme; also recorded: nearly complete”, the “Specific Inhibitory Activity” value is on record as “about 2810” and the “change of inhibitory activity after removal of acetylglucosamine (in words)” value is given as “marked reduction in inhibitory activity”. Moreover, the “inhibitory activity lost after deglycosylation” value in data set [4] (CON-1 treated with PNGase versus native glycosylated CON-1 (FIG. 8)) is listed as “about 50%”. For the same molecule, the “Specific Inhibitory Activity” value in data set [4] (listed as SDS Gel Electrophoresis Slice) is given as 2810.0. The “stability to denaturing conditions (in words)” value in data set [5] is “extreme stability to denaturing conditions”. In data set [6], the “amount of protein showing no toxic effect on the cell line” value is given as “up to 50 ug/assay”. For the same molecule, the “inhibitory effect on alpha-amylase (in words)” value in data set [7] is “None of the other enzymes is significantly affected; also recorded: essentially no inhibitory effect”. The “inhibitory effect on invertase (in words)” value in data set [8] was “None of the other enzymes is significantly affected; also recorded: essentially no inhibitory effect”. Besides, the “inhibitory effect on debranching enzyme (in words)” value in [9] was “None of the other enzymes is significantly affected; also recorded: essentially no inhibitory effect”.

B2: CON-2: small form analog of CON-1, salivary glycoprotein of 82 amino acids (protein)
chain: SPPGKPQGPPPQGGNQPQGPPPPPGKPQGPPPQGGNKPQGPPPPGKPQGPPPQGGNKSQGPPPPGKPQGPPPQGGSKSRSSR
As for B2, the “inhibitory effect on glucoamylase (in words)” value in data set [1] is reported as “essentially no inhibitory effect”. Moreover, the “inhibitory effect on beta-amylase (in words)” value in data set [2] was “essentially no inhibitory effect”. For the same molecule, in data set [4], the “inhibitory effect on alpha-glucosidase activity (in words)” value is “nearly complete” and the “change of inhibitory activity after removal of acetylglucosamine (in words)” value was “marked reduction in inhibitory activity”. For the same molecule, in data set [5], the “stability to denaturing conditions (in words)” value is recorded as “extreme stability to denaturing conditions”. Further, the “inhibitory effect on alpha-amylase (in words)” value in data set [7] is “essentially no inhibitory effect”. Also, the “inhibitory effect on invertase (in words)” value in data set [8] is given as “essentially no inhibitory effect”. Moreover, the “inhibitory effect on debranching enzyme (in words)” value in data set [9] is reported as “essentially no inhibitory effect”.

B3: alpha-amylase: salivary protein tested for effect on alpha-glucosidase (protein, UniProt P0DUB6 16-511, looked up)
Alpha-amylase 1A: QYSSNTQQGRTSIVHLFEWRWVDIALECERYLAPKGFGGVQVSPPNENVAIHNPFRPWWERYQPVSYKLCTRSGNEDEFRNMVTRCNNVGVRIYVDAVINHMCGNAVSAGTSSTCGSYFNPGSRDFPAVPYSGWDFNDGKCKTGSGDIENYNDATQVRDCRLSGLLDLALGKDYVRSKIAEYMNHLIDIGVAGFRIDASKHMWPGDIKAILDKLHNLNSNWFPEGSKPFIYQEVIDLGGEPIKSSDYFGNGRVTEFKYGAKLGTVIRKWNGEKMSYLKNWGEGWGFMPSDRALVFVDNHDNQRGHGAGGASILTFWDARLYKMAVGFMLAHPYGFTRVMSSYRWPRYFENGKDVNDWVGPPNDNGVTKEVTINPDTTCGNDWVCEHRWRQIRNMVNFRNVVDGQPFTNWYDNGSNQVAFGRGNRGFIVFNNDDWTFSLTLQTGLPAGTYCDVISGDKINGNCTGIKIYVSDDGKAHFSISNSAEDPFIAIHAESKL
On to B3, for which the “inhibitory effect on alpha-glucosidase activity (in words)” value in data set [4] is reported as “significantly enhance enzyme activity”.
